B1: SEQ ID NO: 54: MTERF158-399 fused to FoxoTAD with LMSTEN (protein)
chain: HEKFPSDLDLDMFNGSLECDMESIIRSELMDADGLDFNFDSEAQNVSSHVPYPVALHVNIVNVPQPAAAAIQRHYNDEDPEKEKRIKELELLLMSTENELKGQQVLPTQNHTCSYPGWHST
B2: FRB::RelA430-551: FRBT2098L fused to RelA430-551 (protein)
chain: MVAILWHEMWHEGLEEASRLYFGERNVKGMFEVLEPLHAMMERGPQTLKETSFNQAYGRDLMEAQEWCRKYMKSGNVKDLLQAWDLYYHVFRRISQAGEGTLSEALLQLQFDDEDLGALLGNSTDPAVFTDLASVDNSEFQQLLNQGIPVAPHTTEPMLMEYPEAITRLVTGAQRPPDPAPAPLGAPGLPNGLLSGDEDFSSIADMDFSALLSQISS
B3: SEQ ID NO: 56: MTERF158-399 fused to LMSTEN with TA1 (protein)
chain: EAQNVSSHVPYPVALHVNIVNVPQPAAAAIQRHYNDEDPEKEKRIKELELLLMSTENELKGQQVLPTQNHTCSYPGWHSTPGLPNGLLSGDEDFSSIADMDFSALLSQISS
B4: SEQ ID NO: 58: MTERF158-399 fused to FoxoTAD with TA1 (protein)
chain: HEKFPSDLDLDMFNGSLECDMESIIRSELMDADGLDFNFDSPGLPNGLLSGDEDFSSIADMDFSALLSQISS
B5: SEQ ID NO: 196: MTERF158-399 fused to two copies of the LMSTEN domain (protein)
chain: EAQNVSSHVPYPVALHVNIVNVPQPAAAAIQRHYNDEDPEKEKRIKELELLLMSTENELKGQQVLPTQNHTCSYPGWHSTEAQNVSSHVPYPVALHVNIVNVPQPAAAAIQRHYNDEDPEKEKRIKELELLLMSTENELKGQQVLPTQNHTCSYPGWHST
B6: MTERF1104-399 with FoxoTAD: FoxoTAD: MTERF1104-399 (SEQ ID NO: 9) fused to FoxoTAD: FoxoTAD (SEQ ID NO: 33) (protein, listed as Homo sapiens)
chain: EQDLKMFLLSKGASKEVIASIISRYPRAITRTPENLSKRWDLWRKIVTSDLEIVNILERSPESFFRSNNNLNLENNIKFLYSVGLTRKCLCRLLTNAPRTFSNSLDLNKQMVEFLQAAGLSLGHNDPADFVRKIIFKNPFILIQSTKRVKANIEFLRSTFNLNSEELLVLICGPGAEILDLSNDYARRSYANIKEKLFSLGCTEEEVQKFVLSYPDVIFLAEKKFNDKIDCLMEENISISQIIENPRVLDSSISTLKSRIKELVNAGCNLSTLNITLLSWSKKRYEAKLKKLSRFAHEKFPSDLDLDMFNGSLECDMESIIRSELMDADGLDFNFDSHEKFPSDLDLDMFNGSLECDMESIIRSELMDADGLDFNFDS
B7: SEQ ID NO: 194: MTERF158-399 fused to three TA1 domains (protein)
chain: PGLPNGLLSGDEDFSSIADMDFSALLSQISSPGLPNGLLSGDEDFSSIADMDFSALLSQISSPGLPNGLLSGDEDFSSIADMDFSALLSQISS
B8: SEQ ID NO: 52: MTERF158-399 fused to chimeric TAD consisting of FoxoTAD, LMSTEN, and TA1 (protein)
chain: HEKFPSDLDLDMFNGSLECDMESIIRSELMDADGLDFNFDSEAQNVSSHVPYPVALHVNIVNVPQPAAAAIQRHYNDEDPEKEKRIKELELLLMSTENELKGQQVLPTQNHTCSYPGWHSTPGLPNGLLSGDEDFSSIADMDFSALLSQISS

Assays:
[1] = tested on: Response Element-driven mCerulean reporter (MTERF1 binding sites, SEQ ID NO: 42); assay: mCerulean reporter co-transfection with HumTAP constructs in HEK293 cells (flow cytometry); type: cell-based, human; settings: HEK293; for reporter (mCerulean) expression: TAD fused to MTERF158-399, pEF1a-driven, Example 4, FIG. 9B, C
Text: To construct a promoter with Response Elements/MTERF1 binding sites driving the gene of interest, the inventors placed MTERF1 binding sites (SEQ ID NO: 42) upstream a minimal TATA box (SEQ ID NO: 103). An mCerulean fluorescent reporter representing the gene of interest (Gol) was placed downstream of the TATA box. Each of these is referred to as a reporter construct. Five different reporter constructs were made comprising respectively 3, 5, 7, 9, and 11 MTERF1 binding sites 6 base pairs apart upstream of the TATA box (FIG. 1A; SEQ ID NO: 41, 44, 45, 46 and 47, respectively). They were co-transfected with the MTF construct into Hela cells. […] Using flow cytometry, relative mCerulean levels were measured and calculated by normalization to the transfection control in Hela cells (FIG. 1C). […] Next, reporter plasmids with varying spacer lengths (0, 6 bp and 10 bp; SEQ ID NO: 48, 44 and 49, respectively) (FIG. 1F) between a fixed number of REs (i.e. 5 REs/MTERF1 binding sites) were transfected with the MTF construct. […] This was confirmed using flow cytometry (FIG. 1H). […]
With the goal to engineer stronger and possibly shorter HumTAPs, the inventors fused the MTERF158-399 peptide (SEQ ID NO: 1) to a variety of transactivation domains and transfected HEK293 cells with those constructs and the reporter construct comprising 5×RE/MTERF1 binding sites without a spacer between them (SEQ ID NO: 48).
First, MTERF158-399 (SEQ ID NO: 1) was fused with different subsequences of RelA. RelA361-551 (SEQ ID NO: 27) corresponds to the sequence used in the construction of the bacterial-derived synthetic TF PIT2 [19], while RelA342-551 (SEQ ID NO: 29) contains all annotated transactivation domains according to domain annotation under Uniprot Q04206 (https://www.uniprot.org/uniprotkb/Q04206/entry). […] We also fused MTERF158-399 (SEQ ID NO: 1) to a set of transactivation domains previously found to be strong activators with a small genetic footprint (FIG. 4B).
To further decrease the DNA footprint of a HumTAP, the inventors investigated to what degree the DNA binding domain may be reduced. To this end, the inventors created 3 versions of MTERF1 subsequences fused to RelA430-551 (SEQ ID NO: 3). MTERF173-399 (SEQ ID NO: 7), MTERF1104-399 (SEQ ID NO: 9), and MTERF1135-399 (SEQ ID NO: 11) are subunits of MTERF1 without its mitochondrial transfer peptide (MTERF11-57; SEQ ID NO: 37) that either lack only the first […] N-terminal amino acids (MTERF58-72; SEQ ID NO: 39) or additionally, also lack the first (MTERF173-98; SEQ ID NO: 104) or both the first and second (MTERF1104-134; SEQ ID NO: 106) mterf motifs (FIG. 5A). The removal of N-terminal domains reduces the genetic footprint of a HumTAP (FIG. 5B). These constructs were co-transfected into HEK293 cells with the reporter construct containing 5×RE without a spacer in its promoter (SEQ ID NO: 48).
In addition to RelA430-551 (termed “v1”), the inventors tested three alternative subsequences: v2) RelA342-551 (SEQ ID NO: 29), which contains all transactivation domains as annotated on UniProt Q04206; v3) RelA361-551 (SEQ ID NO: 27), which is identical to the peptide used in the construction of PIT2 [2]; and v4) RelA521-551 (SEQ ID NO: 31), which constitutes only the transactivation domain 1 (TA1). The protein domains WW (SEQ ID NO: 21), KRAB of ZNF473 (SEQ ID NO: 23), Nuc-rec-co-Act (SEQ ID NO: 25), LMSTEN (SEQ ID NO: 19), and FoxoTAD (SEQ ID NO: 17) were recently identified as strong transactivators. To assess their functionality in the HumTAP context, the inventors created fusion proteins between each of them and MTERF158-399 (SEQ ID NO: 1) (FIG. 9A).
Upon co-transfection of HEK293 cells with plasmids encoding pEF1a-driven expression of the fusion HumTAPs, a Response Element-driven mCerulean reporter protein, and a mCherry transfection control, all peptides derived from RelA except TA1 mediated high levels of reporter gene expression. […]

[2] = target: T1, FKBP (SEQ ID NO: 142) and FRBT2098L (SEQ ID NO: 140) heterodimerization (Homo sapiens, UniProt P42345+P62942+Q04206, T2098L); assay: A/C heterodimerizer-inducible HumTAP gene expression system in HEK293 cells; type: cell-based; settings: HEK293; constant A/C heterodimerizer concentration of 100 nM; FIG. 10B
T1 construct: expressed in transfected cells; host or cells: HEK293
T1 sequence (P62942 with tags, fused parts or gaps, stated change not applied, one chain of several): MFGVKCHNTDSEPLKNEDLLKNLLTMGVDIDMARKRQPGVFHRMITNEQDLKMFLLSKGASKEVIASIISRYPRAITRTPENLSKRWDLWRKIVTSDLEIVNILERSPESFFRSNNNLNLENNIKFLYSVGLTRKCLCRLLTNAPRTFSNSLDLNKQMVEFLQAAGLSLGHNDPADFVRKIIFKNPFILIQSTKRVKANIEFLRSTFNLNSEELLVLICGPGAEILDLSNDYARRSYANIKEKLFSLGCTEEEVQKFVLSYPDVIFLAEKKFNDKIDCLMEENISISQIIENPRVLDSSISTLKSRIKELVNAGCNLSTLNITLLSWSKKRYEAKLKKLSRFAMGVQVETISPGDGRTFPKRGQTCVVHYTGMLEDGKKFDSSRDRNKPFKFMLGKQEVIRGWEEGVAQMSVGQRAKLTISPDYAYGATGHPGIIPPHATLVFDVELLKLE
Text: One well-characterized small-molecule based dimerization system is based on the rapamycin analog A/C (C16-(S)-7-methylindolerapamycin) that induces heterodimerization between the human proteins FK506-binding protein 12 (FKBP; SEQ ID NO: 142) and the FKBP12-rapamycin binding domain (FRB) mutant FRBT2098L (SEQ ID NO: 140), [31]. To achieve A/C heterodimerizer-inducible gene expression, the inventors fused FKBP (SEQ ID NO: 142) to the N-terminus of MTERF158-399 (SEQ ID NO: 1) and FRB (SEQ ID NO: 140) to the C-terminus of different transactivation domains (FIG. 10A). […] In accordance with the results described above, chimeric transactivation domains mediated higher maximal output expression levels than RelA430-551.
The inventors reasoned that in the present system, dimerization might be hindered by either FRB's or FKBP's fusion partner and investigated whether the addition of linkers between the protein domains might impact the EC50 value (FIG. 10 D). A combination of the cMyc nuclear localization signal (NLS) (SEQ ID NO: 122) linking MTERF158-399 and FKBP, and the rigid linker AP6 (SEQ ID NO: 120) linking FRB and RelA430-551 led to a reduction in EC50 to ~60 nM while also increasing maximal output ~3-fold over the variant without linkers and RelA430-551 as TAD (FIG. 10 D).

| Molecule | reporter (mCerulean) expression [1] | also measured |
| --- | --- | --- |
| B1 | smaller and stronger than the benchmark |  |
| B2 |  | molar excess over the MTERF158-399: FKBP plasmid giving the highest mCerulean levels [2]: 4 fold |
| B3 | smaller and stronger than the benchmark |  |
| B4 | smaller and stronger than the benchmark |  |
| B5 |  | mCerulean/reporter expression, fold more than one copy of the TAD ([1]; two copies of TAD fused to MTERF158-399, Example 4, FIG. 9C): ~ 2.7 fold |
| B6 |  | strength / reporter gene expression, fold over MTF ([1]; chimeric TAD fused to MTERF1104-399, FIG. 9F): ~ 1.5 fold |
| B7 | further increased output expression |  |
| B8 |  | reporter gene expression relative to RelA430-551 ([1]; fused to MTERF158-399, FIG. 9C): 3.7 times |
